Reference: patent publication US9605266, “Cell-specific internalizing RNA aptamers against human CCR5 and uses therefore” (CITY OF HOPE)

Columns and labels:
[1] = target: T1, C-C chemokine receptor type 5 (CCR5) (Homo sapiens, UniProt P51681 P51681:1-352); experiment: cell_activity; HIV-1 R5 JR-FL p24 day 3; day 5 142.6 ± 41.3, day 7 79.3 ± 21.6; siRNA also contributes; settings: tags: endogenous on primary PBMC-CD4+ cells; label: Cy3 on aptamer-sense strand, Cy5 on antisense strand; aptamer with UU linker and siRNA duplex, 2-nt 3' overhang
T1 sequence (P51681 whole entry, one chain of several): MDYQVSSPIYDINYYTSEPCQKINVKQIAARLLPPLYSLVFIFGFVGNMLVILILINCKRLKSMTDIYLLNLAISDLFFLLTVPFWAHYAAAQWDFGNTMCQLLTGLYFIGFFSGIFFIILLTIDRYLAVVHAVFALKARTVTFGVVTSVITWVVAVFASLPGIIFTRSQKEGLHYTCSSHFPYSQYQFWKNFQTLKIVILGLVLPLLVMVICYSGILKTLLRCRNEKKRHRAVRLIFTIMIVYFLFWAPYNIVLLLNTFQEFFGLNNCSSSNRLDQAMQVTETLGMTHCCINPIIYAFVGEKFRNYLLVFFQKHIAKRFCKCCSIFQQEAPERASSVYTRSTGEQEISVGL

[2] = target: T1, C-C chemokine receptor type 5 (CCR5); experiment: flow; apparent Kd, live cells, RT 30 min, DPBS with 1 mM Ca2+/1 mM Mg2+ and tRNA; R2 0.95; reduced by CCR5 siRNA knockdown; no binding to CCR5-negative U373-Magi; settings: tags: U373-Magi-CCR5E cells
Protocol: Adherent cell lines (U373-Magi cells and U373-Magi-CCR5E cells) were washed with pre-warmed PBS and detached with Cell stripper. Suspension cell lines (CEM-NKr cells, CEM-NKr-CCR5 cells, and PBMCs) were washed twice with pre-warmed PBS. After counting the cells' number, the desired number of cells was resuspended in 100 µL binding buffer containing Cy3-labeled experimental RNA aptamers at different concentrations as shown. After incubation at room temperature for 30 min, cells were washed three times with 500 µL of pre-warmed binding buffer, and finally resuspended in 350 µL of DPBS for flow cytometry analysis (Flow cytometry core, City of Hope, CA). The dissociation constants were calculated using nonliner curve regression with a Graph Pad Prism 6.0.

[3] = target: T1, C-C chemokine receptor type 5 (CCR5); experiment: cell_activity; HIV-1 R5 BaL p24 day 3; day 5 354.3 ± 113.3, day 7 >1000; settings: tags: endogenous on primary PBMC-CD4+ cells
Protocol: (§1) PBMCs were freshly isolated from healthy donors and CD8 cells were depleted as described above. After culture for 3 days in the activated T-cell culture medium containing interleukin-2, the cell-surface CCR5 level of PBMCs was detected by flow cytometry as described previously. HIV-1 protection assay was performed in 24-well tissue culture plates. Duplicate night-point dilution series of experimental RNAs were prepared and refolded in refolding buffer. PBMCs were washed once with pre-warmed PBS, and 4×10^5 PBMCs were seeded to each well of assay plates. Subsequently, experimental RNAs with different concentrations were added. Plates were incubated for 4-6 hours at 37° C. in a humidified 5% CO_2 incubator. Various viruses (R5 strains: JR-FL, Bal, MOI=0.01; or X4 strains: IIIB, NL4-3, MOI=0.001) were added into each well. After 24 hours incubation, the cells were gently washed with pre-warmed PBS to eliminate free viruses and were incubated sequentially at 37° C. in a humidified 5% CO_2 incubator.
(§2) The $IC50$ value of G-3 aptamer was indicated here. G-3 aptamers with different concentrations were incubated with primary PBMCs. After 4-6 hours incubation, various viruses (R5 strains: JR-FL, Bal; or X4 strains: IIIB, NL4-3) were added into each well. The culture supernatants were collected at different time points after infection for HIV-1 p24 antigen ELISA assay. […]

[4] = target: T1, C-C chemokine receptor type 5 (CCR5); experiment: cell_activity; HIV-1 R5 JR-FL p24 day 3; day 5 58.51 ± 11.22, day 7 17.09 ± 5.90; X4 NL4-3 not converged; settings: tags: endogenous on in vivo generated human CD4+ T cells
[5] = target: T1, C-C chemokine receptor type 5 (CCR5); experiment: cell_activity; HIV-1 R5 JR-FL p24 day 3; day 5 232.6 ± 38.3, day 7 170.4 ± 47.0; X4 strains IIIB and NL4-3 not inhibited; settings: tags: endogenous on primary PBMC-CD4+ cells
Protocol: as §1, §2

[6] = target: T1, C-C chemokine receptor type 5 (CCR5); experiment: cell_activity; HIV-1 R5 BaL p24 day 3; day 5 245.5 ± 35.76, day 7 243.2 ± 46.16; settings: tags: endogenous on in vivo generated human CD4+ T cells

| Binder | IC50 [1] | Kd [2] | IC50 [3] | IC50 [4] | IC50 [5] | IC50 [6] |
| --- | --- | --- | --- | --- | --- | --- |
| G-3-TNPO3 27-mer OVH chimera (mixed, 2'-F pyrimidines in sense strand (transcribed)) RNA 1: GGGAGGACGAUGCGGGCCUUCGUUUGUUUCGUCCACAGACGACUCGCCCGAUUCAAAGCCGACAUUGCAGCUCGUGUACC RNA 2: UACACGAGCUGCAAUGUCGGCUUUG | 23.2 nM |  |  |  |  |  |
| G-3 aptamer (ssRNA, 2'-F pyrimidines (2'-F-C, 2'-F-U)) RNA: GGGAGGACGAUGCGGGCCUUCGUUUGUUUCGUCCACAGACGACUCGCCCGA |  | 111 nM | 349 nM | 48 nM | 220 nM | 148 nM |
